Data as given in the supplement of paper PMC10065799, “High-throughput profiling of sequence recognition by tyrosine kinases and SH2 domains using bacterial peptide display” (eLife, 2023).

Tests used:
AncSZ = experiment: phosphorylation enrichment, bacterial display (enrichment ratio); higher = better substrate or ligand; peptides without Tyr show the background
Fes = Fes (UniProt P07332); experiment: as above
Hck = Hck (UniProt P08631); experiment: as above
c-Abl (mouse) = experiment: as above
MERTK = MERTK (UniProt Q12866); experiment: as above
EPHB1 = EPHB1 (UniProt P54762); experiment: as above
EPHB2 = EPHB2 (UniProt P29323); experiment: as above
c-Src = experiment: as above
FGFR1 = FGFR1 (UniProt P11362); experiment: as above
Fer (mouse) = experiment: as above
FGFR3 = FGFR3 (UniProt P22607); experiment: as above
Jak2 = Jak2 (UniProt O60674); experiment: as above
Fyn = Fyn (UniProt P06241); experiment: as above
SHP2-C SH2 = experiment: SH2 binding enrichment of the phosphorylated peptide, bacterial display (enrichment ratio); higher = better substrate or ligand; peptides without Tyr show the background
c-Src SH2 = experiment: as above
Grb2 SH2 = Grb2 SH2 (UniProt P62993); experiment: as above
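Throughout, for SH2 binding enrichment of the phosphorylated peptide, bacterial display: peptide library displayed on the E. coli surface as eCPX fusions, selected cells deep-sequenced, score is each peptide's frequency after selection divided by its frequency in the input.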
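Throughout, for phosphorylation enrichment, bacterial display: 11-residue human phosphosite peptides and single-mutation variants displayed on the E. coli surface, counted by deep sequencing, each peptide's frequency after selection divided by its frequency in the unselected input library; frequency after pTyr selection over input frequency; kinase dosed for 20-30% of maximal phosphorylation in three min.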

Jak2, sequence (O60674 whole entry, looked up): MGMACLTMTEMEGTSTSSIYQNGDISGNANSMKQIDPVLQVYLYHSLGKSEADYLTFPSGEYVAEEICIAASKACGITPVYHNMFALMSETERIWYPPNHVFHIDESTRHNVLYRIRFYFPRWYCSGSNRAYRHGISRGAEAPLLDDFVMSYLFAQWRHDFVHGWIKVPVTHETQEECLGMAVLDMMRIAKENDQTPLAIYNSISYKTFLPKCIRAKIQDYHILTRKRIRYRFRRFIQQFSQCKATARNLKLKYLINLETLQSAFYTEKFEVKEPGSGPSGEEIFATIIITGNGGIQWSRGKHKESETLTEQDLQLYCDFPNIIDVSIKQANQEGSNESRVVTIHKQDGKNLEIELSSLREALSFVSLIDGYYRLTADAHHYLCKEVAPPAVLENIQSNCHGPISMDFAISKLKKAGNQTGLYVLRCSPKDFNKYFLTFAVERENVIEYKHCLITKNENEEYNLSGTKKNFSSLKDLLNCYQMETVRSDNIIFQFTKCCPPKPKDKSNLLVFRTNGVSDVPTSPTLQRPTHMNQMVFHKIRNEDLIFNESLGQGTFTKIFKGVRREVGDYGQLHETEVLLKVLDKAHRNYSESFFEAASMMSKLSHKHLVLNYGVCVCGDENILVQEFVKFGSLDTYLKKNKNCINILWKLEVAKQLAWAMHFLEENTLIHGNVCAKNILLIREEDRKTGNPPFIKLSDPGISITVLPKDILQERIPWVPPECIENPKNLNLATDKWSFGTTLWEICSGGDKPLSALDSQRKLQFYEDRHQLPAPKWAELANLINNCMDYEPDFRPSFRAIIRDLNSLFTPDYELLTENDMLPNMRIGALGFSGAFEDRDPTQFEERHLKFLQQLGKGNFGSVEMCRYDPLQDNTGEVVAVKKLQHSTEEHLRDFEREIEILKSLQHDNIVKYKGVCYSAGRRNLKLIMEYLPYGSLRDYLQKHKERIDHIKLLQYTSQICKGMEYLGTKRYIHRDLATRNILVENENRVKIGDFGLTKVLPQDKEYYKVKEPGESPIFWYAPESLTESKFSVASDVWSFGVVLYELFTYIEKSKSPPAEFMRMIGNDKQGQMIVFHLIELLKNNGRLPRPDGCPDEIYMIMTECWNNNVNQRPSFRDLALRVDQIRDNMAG
Fyn, sequence (P06241 whole entry, looked up): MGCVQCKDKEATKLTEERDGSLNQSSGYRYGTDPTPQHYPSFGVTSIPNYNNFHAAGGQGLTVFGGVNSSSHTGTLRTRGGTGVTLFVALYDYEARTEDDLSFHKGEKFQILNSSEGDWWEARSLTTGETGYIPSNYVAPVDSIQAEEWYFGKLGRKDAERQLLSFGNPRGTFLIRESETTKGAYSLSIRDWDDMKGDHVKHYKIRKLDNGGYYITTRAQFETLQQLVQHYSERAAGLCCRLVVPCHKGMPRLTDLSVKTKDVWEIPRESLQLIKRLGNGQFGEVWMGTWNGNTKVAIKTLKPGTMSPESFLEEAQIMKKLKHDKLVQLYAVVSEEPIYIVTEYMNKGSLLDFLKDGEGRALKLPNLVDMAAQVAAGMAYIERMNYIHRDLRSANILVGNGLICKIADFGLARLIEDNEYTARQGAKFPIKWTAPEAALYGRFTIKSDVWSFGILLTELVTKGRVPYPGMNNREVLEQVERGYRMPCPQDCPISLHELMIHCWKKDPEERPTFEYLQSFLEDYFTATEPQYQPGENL
MERTK, sequence (Q12866 whole entry, looked up): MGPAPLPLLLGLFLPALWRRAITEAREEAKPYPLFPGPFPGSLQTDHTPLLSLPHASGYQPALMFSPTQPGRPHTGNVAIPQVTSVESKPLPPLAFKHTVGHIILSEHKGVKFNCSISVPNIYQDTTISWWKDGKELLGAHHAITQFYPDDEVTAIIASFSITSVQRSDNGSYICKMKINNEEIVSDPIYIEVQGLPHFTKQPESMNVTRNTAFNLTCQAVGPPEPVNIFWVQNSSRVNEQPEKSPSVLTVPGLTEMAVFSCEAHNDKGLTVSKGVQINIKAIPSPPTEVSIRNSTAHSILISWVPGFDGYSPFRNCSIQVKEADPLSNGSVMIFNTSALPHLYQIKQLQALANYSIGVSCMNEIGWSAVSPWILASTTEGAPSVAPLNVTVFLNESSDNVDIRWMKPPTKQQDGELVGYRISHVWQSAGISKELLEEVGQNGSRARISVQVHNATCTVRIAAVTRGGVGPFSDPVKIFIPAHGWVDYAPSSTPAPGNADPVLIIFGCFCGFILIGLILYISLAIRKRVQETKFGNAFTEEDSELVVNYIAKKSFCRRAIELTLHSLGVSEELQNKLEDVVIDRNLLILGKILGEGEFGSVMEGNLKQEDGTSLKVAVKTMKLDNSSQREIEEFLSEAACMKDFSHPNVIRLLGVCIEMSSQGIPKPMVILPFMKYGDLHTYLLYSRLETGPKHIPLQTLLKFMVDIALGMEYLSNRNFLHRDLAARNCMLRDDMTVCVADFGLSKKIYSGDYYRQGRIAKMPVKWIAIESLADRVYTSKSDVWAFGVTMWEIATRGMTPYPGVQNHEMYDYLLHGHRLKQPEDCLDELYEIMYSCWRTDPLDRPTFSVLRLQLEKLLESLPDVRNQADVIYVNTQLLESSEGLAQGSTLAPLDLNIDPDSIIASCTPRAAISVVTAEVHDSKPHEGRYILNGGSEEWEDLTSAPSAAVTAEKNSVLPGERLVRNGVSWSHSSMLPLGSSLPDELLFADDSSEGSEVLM
Fes, sequence (P07332 whole entry, looked up): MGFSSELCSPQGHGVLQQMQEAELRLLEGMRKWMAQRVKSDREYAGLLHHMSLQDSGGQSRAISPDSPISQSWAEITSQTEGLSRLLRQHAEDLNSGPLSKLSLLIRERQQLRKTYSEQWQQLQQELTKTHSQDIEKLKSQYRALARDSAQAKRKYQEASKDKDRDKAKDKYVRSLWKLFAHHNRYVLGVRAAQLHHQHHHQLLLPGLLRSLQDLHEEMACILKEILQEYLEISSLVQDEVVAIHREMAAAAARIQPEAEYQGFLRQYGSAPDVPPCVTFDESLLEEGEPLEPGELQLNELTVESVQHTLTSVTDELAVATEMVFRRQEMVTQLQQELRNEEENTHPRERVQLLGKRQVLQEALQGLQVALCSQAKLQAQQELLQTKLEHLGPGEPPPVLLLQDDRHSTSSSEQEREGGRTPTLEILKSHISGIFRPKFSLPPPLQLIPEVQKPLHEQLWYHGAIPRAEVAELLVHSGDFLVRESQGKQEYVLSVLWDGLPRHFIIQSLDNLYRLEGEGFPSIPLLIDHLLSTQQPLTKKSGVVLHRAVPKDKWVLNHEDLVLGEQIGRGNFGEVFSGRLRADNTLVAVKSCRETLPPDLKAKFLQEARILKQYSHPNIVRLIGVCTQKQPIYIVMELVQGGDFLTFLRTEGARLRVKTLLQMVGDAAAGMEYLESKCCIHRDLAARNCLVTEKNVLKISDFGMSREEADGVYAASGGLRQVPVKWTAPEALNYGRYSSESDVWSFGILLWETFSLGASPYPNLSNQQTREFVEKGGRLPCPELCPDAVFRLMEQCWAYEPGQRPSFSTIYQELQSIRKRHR
EPHB2, sequence (P29323 whole entry, looked up): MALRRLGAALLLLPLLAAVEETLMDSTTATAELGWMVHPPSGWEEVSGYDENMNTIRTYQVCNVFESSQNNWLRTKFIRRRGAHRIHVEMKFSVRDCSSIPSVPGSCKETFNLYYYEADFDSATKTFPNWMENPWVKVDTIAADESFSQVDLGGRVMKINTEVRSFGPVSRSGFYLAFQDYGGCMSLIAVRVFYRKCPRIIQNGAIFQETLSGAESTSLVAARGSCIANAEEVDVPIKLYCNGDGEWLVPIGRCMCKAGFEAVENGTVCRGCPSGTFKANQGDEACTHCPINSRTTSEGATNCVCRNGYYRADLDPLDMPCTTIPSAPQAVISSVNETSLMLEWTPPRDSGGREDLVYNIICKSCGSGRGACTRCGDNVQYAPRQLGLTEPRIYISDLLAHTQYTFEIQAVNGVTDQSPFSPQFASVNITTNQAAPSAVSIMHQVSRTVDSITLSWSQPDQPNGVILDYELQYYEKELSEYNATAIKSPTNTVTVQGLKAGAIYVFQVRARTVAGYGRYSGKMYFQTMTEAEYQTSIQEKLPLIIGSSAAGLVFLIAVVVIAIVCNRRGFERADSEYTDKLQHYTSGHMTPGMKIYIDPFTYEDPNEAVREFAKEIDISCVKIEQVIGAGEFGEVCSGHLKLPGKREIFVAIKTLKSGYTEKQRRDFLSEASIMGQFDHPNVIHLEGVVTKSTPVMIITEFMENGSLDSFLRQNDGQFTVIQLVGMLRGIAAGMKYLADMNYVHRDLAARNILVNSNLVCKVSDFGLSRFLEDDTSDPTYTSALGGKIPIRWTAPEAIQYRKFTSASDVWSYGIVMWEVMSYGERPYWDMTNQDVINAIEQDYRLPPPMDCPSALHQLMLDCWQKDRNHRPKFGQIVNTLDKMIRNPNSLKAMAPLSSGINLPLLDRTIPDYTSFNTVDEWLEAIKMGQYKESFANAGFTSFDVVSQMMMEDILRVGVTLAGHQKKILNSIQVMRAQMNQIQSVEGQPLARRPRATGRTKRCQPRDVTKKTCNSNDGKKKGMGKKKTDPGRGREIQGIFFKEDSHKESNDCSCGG
Hck, sequence (P08631 whole entry, looked up): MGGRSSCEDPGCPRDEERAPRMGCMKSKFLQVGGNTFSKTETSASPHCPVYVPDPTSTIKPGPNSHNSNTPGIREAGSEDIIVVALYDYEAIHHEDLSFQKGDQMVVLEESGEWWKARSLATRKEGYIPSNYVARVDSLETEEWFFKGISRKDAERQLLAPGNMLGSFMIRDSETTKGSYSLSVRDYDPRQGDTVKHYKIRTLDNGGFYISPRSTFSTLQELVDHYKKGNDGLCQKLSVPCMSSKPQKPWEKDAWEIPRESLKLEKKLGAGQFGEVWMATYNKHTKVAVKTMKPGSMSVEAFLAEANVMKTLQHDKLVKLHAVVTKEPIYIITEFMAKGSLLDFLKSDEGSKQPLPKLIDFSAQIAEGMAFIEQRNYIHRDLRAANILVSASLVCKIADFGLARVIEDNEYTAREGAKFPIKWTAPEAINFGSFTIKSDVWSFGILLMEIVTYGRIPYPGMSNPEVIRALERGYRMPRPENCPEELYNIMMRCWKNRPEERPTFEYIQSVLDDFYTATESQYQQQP

| Sequence | SH2 binding enrichment (SHP2-C SH2) | SH2 binding enrichment (c-Src SH2) | SH2 binding enrichment (Grb2 SH2) | phosphorylation enrichment (AncSZ) | phosphorylation enrichment (Fes) | phosphorylation enrichment (Hck) | phosphorylation enrichment (c-Abl (mouse)) | phosphorylation enrichment (MERTK) | phosphorylation enrichment (EPHB1) | phosphorylation enrichment (EPHB2) | phosphorylation enrichment (c-Src) | phosphorylation enrichment (FGFR1) | phosphorylation enrichment (Fer (mouse)) | phosphorylation enrichment (FGFR3) | phosphorylation enrichment (Jak2) | phosphorylation enrichment (Fyn) |
| --- | --- | --- | --- | --- | --- | --- | --- | --- | --- | --- | --- | --- | --- | --- | --- | --- |
| GGSTYYIDTNA [ACTL6A_Y69_P66S] | 0.906 | 0.731 | 1.03 | 0.882 | 0.998 | 0.602 | 0.654 | 1.01 | 0.563 | 0.555 | 0.805 | 0.724 | 0.453 | 0.719 | 0.668 | 0.955 |
| SHGKQYRVPSD [HHIPL2_Y395_R394Q] | 0.475 | 0.403 | 0.686 | 0.54 | 0.544 | 0.4 | 0.512 | 0.347 | 0.35 | 0.371 | 0.353 | 0.344 | 0.354 | 0.427 | 0.46 | 0.34 |
| SMEGLYSSAQD [CLIC5_Y111_T114A] | 0.595 | 0.733 | 0.582 | 1.51 | 1.55 | 3.19 | 1.05 | 1.52 | 1.62 | 1.8 | 3.2 | 0.522 | 4.7 | 0.908 | 1.3 | 2.67 |
| DAAEDYAEGVR [DHODH_Y194] | 0.63 | 0.701 | 0.937 | 1.21 | 1.31 | 0.586 | 0.695 | 0.45 | 0.549 | 0.671 | 0.45 | 0.561 | 0.629 | 0.746 | 0.951 | 0.542 |
| GFAIVYGTIIL [GPR179_Y460] | 0.547 | 0.364 | 0.604 | 1.19 | 1.32 | 0.502 | 1.31 | 0.389 | 0.644 | 0.592 | 0.462 | 0.441 | 0.514 | 0.84 | 1.28 | 0.431 |
| SIKDKYVTVLY [KCNH2_Y611_A614V] | 2.27 | 1.06 | 0.99 | 0.836 | 0.903 | 0.455 | 0.594 | 0.437 | 0.519 | 0.506 | 0.403 | 0.68 | 0.512 | 0.733 | 0.696 | 0.598 |
| VHFARYLAMNK [HARS1_Y138_P134H] | 0.72 | 0.403 | 0.931 | 0.864 | 0.902 | 0.506 | 0.565 | 0.509 | 0.504 | 0.555 | 0.553 | 0.511 | 0.44 | 0.771 | 0.661 | 0.557 |
| DPASAYADEVK [ETNPPL_Y189_S185P] | 0.462 | 0.671 | 0.941 | 1.06 | 1.2 | 0.557 | 0.794 | 0.435 | 0.628 | 0.469 | 0.416 | 0.473 | 0.495 | 0.724 | 1.06 | 0.492 |
| SSLEDYVRETN [GIMAP6_Y176_G171S] | 0.776 | 0.532 | 0.899 | 1.03 | 1.06 | 0.431 | 0.721 | 0.424 | 0.46 | 0.527 | 0.44 | 0.67 | 0.466 | 0.641 | 0.92 | 0.485 |

Now from value to sequence, other results behind:

| SH2 binding enrichment (SHP2-C SH2) | SH2 binding enrichment (c-Src SH2) | SH2 binding enrichment (Grb2 SH2) | Sequence | phosphorylation enrichment (AncSZ) | phosphorylation enrichment (Fes) | phosphorylation enrichment (Hck) | phosphorylation enrichment (c-Abl (mouse)) | phosphorylation enrichment (MERTK) | phosphorylation enrichment (EPHB1) | phosphorylation enrichment (EPHB2) | phosphorylation enrichment (c-Src) | phosphorylation enrichment (FGFR1) | phosphorylation enrichment (Fer (mouse)) | phosphorylation enrichment (FGFR3) | phosphorylation enrichment (Jak2) | phosphorylation enrichment (Fyn) |
| --- | --- | --- | --- | --- | --- | --- | --- | --- | --- | --- | --- | --- | --- | --- | --- | --- |
| 0.979 | 0.667 | 0.938 | HVIKLFGACSQ [RET_Y791_Y791F] | 1.52 | 1.75 | 0.855 | 1.1 | 0.719 | 1.01 | 0.995 | 0.519 | 0.709 | 0.763 | 1.26 | 0.994 | 0.816 |
| 1.1 | 0.613 | 0.978 | YTFTSYYMHWV [IGHV1-46_Y51] | 1.64 | 1.71 | 1.3 | 1.06 | 4.16 | 1.84 | 1.27 | 0.952 | 3.64 | 1.78 | 2.89 | 3.85 | 0.771 |
| 0.635 | 0.465 | 0.778 | VKPENYRRLDV [VHL_Y175_I180V] | 0.532 | 0.593 | 0.387 | 0.814 | 0.465 | 0.561 | 0.386 | 0.372 | 0.429 | 0.334 | 0.506 | 0.463 | 0.461 |
| 0.954 | 2.15 | 1.26 | RLLRGYDQYAY [HLA-B_Y137_H137Y] | 0.865 | 0.924 | 0.575 | 0.659 | 0.596 | 0.636 | 0.821 | 0.738 | 0.548 | 0.476 | 0.508 | 0.844 | 0.518 |
| 0.558 | 0.388 | 0.679 | QSLEPYTKQQL [STAT3_Y640_V637L] | 0.537 | 0.745 | 0.459 | 0.498 | 0.304 | 0.497 | 0.371 | 0.309 | 0.452 | 0.424 | 0.603 | 0.48 | 0.353 |
| 0.681 | 0.505 | 0.842 | DRLASDLDKVR [KRT10_Y160_Y160D] | 0.603 | 0.661 | 0.425 | 0.443 | 0.362 | 0.372 | 0.471 | 0.363 | 0.439 | 0.416 | 0.469 | 0.537 | 0.448 |
| 0.732 | 0.507 | 0.787 | SDVCMYRKNTF [SYNE2_Y570_I574T_YF] | 0.711 | 0.904 | 0.456 | 0.636 | 0.4 | 0.551 | 0.534 | 0.4 | 0.497 | 0.382 | 0.571 | 0.726 | 0.395 |
| 0.542 | 0.581 | 0.622 | TTSQPYRRLCS [USH2A_Y534_C536R] | 0.412 | 0.866 | 0.286 | 0.288 | 0.316 | 0.247 | 0.393 | 0.356 | 0.287 | 0.315 | 0.479 | 0.355 | 0.29 |
